Data as given in article PMC4604347, “Local regulation of the Srs2 helicase by the SUMO-like domain protein Esc2 promotes recombination at sites of stalled replication”.
Changes are numbered by the printed parent chain.

T1: Esc2 200-456 (Saccharomyces cerevisiae, UniProt Q06340 200-456)
T1 sequence: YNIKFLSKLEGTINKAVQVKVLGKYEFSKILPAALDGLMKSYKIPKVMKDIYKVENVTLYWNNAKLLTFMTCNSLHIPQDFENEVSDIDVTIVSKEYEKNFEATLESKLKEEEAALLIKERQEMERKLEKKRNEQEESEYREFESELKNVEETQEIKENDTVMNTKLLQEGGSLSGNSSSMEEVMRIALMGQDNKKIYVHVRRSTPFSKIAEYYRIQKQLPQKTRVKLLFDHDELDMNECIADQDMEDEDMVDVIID

T2: Esc2 1-199 (Saccharomyces cerevisiae, UniProt Q06340 1-199)
T2 sequence: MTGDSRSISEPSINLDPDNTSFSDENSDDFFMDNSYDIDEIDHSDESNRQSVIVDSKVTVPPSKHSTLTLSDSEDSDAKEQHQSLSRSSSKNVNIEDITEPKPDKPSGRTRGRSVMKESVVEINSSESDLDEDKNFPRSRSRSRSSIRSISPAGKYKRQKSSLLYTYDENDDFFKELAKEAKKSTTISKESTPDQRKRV

T3: Esc2 FF173,174AA (Saccharomyces cerevisiae, UniProt Q06340 1-456, F173A;F174A)
T3 sequence: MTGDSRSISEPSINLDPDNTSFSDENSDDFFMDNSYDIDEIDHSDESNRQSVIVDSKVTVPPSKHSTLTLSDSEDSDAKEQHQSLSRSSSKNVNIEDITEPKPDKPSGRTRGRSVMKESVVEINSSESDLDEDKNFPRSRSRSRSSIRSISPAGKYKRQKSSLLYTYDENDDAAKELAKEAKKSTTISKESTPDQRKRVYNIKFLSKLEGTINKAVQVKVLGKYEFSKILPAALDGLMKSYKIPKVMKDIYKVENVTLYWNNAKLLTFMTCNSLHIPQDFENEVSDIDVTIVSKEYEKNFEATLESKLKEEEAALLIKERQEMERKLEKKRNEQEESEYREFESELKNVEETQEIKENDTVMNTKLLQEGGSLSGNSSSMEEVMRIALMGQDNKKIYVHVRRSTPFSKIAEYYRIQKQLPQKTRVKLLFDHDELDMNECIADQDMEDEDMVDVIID

T4: Esc2 (Saccharomyces cerevisiae, UniProt Q06340 1-456)
T4 sequence: T3 sequence with A173F, A174F

T5: Esc2 1-151 (Saccharomyces cerevisiae, UniProt Q06340 1-151)
T5 sequence: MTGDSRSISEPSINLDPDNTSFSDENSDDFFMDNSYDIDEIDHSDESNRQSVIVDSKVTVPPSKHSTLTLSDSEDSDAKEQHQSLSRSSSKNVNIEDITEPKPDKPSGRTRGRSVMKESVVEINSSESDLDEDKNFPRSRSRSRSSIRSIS

B1: Fork (oligos 18, 20, 21, 22) (structured_DNA)
DNA 1: AGCTACCATGCCTGCACGAATTAAGCAATTCGTAATCATGGTCATAGCT
DNA 2: CTACAGTTCGTCAGGATTCC
DNA 3: AATTCGTGCAGGCATGGTAGCT
DNA 4: AGCTATGACCATGATTACGAATTGCTTGGAATCCTGACGAACTGTAG
B2: 3'-Flap (oligos 18, 21, 22) (structured_DNA)
DNA 1: B1 DNA 1
DNA 2: AATTCGTGCAGGCATGGTAGCT
DNA 3: B1 DNA 4

Columns and labels:
[1] = molecular target: T1, Esc2 200-456; test: EMSA; up to 1000 nM protein; EMSA, 7 nM fluorescein-labeled DNA, 10 min at 37 C; buffer, salt and pH not given in the material; conditions: protein: recombinant; tags: expressed as GST fusion; tag status in assay not explicit; label: 5'-fluorescein on strand 1; fork 1:3 1:4 2:4; three duplex arms
[2] = molecular target: T2, Esc2 1-199; test: EMSA; highly proficient; 7 nM DNA, 0-1000 nM protein; EMSA, 7 nM fluorescein-labeled DNA, 10 min at 37 C; buffer, salt and pH not given in the material; conditions: protein: recombinant; tags: expressed as GST fusion; tag status in assay not explicit; label: 5'-fluorescein on strand 1; fork 1:3 1:4 2:4; three duplex arms
[3] = molecular target: T3, Esc2 FF173,174AA; test: EMSA; still proficient, degree only in figure; EMSA, 7 nM fluorescein-labeled DNA, 10 min at 37 C; buffer, salt and pH not given in the material; conditions: protein: recombinant; tags: expressed as GST fusion; tag status in assay not explicit; label: 5'-fluorescein on strand 1; fork 1:3 1:4 2:4; three duplex arms
[4] = molecular target: T4, Esc2; test: EMSA; strong preference; 7 nM DNA; EMSA, 7 nM fluorescein-labeled DNA, 10 min at 37 C; buffer, salt and pH not given in the material; conditions: protein: recombinant, tags: GST tag removed, label: 5'-fluorescein on strand 1
[5] = molecular target: T5, Esc2 1-151; test: EMSA; binding completely lost; up to 1000 nM protein; EMSA, 7 nM fluorescein-labeled DNA, 10 min at 37 C; buffer, salt and pH not given in the material; conditions: protein: recombinant; tags: expressed as GST fusion; tag status in assay not explicit; label: 5'-fluorescein on strand 1; fork 1:3 1:4 2:4; three duplex arms

Row | Binder | binding result [1] | binding result [2] | binding result [3] | binding result ([4]; fork 1:3 1:4 2:4, three duplex arms) | binding result [5] | binding result ([4]; 3' flap 1:2 1:3, 20 nt ss 3' flap on strand 3)
1 | B1 | no binding | binds | binds | binds | no binding | 
2 | B2 |  |  |  |  |  | binds
